Source: patent publication US20220411483A1 (Chugai, published 2022)

T1: FcγRIIb extracellular domain, His tag (human, UniProt P31994 43-217)
T1 construct: extracellular domain; also called FcgRIIb
T1 sequence (looked up): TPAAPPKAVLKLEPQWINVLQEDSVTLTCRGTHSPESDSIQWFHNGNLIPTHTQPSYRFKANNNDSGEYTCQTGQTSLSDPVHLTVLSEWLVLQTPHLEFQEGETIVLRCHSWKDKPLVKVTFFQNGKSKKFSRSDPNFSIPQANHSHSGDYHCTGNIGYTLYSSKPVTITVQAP

T2: FcγRIIa R type extracellular domain, His tag (human, UniProt P12318 34-217)
T2 construct: extracellular domain; also called FcgRIIaR
T2 sequence (looked up): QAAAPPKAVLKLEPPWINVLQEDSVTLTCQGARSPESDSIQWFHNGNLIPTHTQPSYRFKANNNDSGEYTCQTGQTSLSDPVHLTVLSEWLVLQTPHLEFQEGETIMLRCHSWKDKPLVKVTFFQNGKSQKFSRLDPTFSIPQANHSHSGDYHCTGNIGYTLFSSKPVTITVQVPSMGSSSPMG

T3: FcγRIIb extracellular domain with C-terminal His tag (human, UniProt P31994 43-217)
T3 construct: extracellular domain; also called FcgRIIb; not shown: His tag at the C terminus
T3 sequence (looked up): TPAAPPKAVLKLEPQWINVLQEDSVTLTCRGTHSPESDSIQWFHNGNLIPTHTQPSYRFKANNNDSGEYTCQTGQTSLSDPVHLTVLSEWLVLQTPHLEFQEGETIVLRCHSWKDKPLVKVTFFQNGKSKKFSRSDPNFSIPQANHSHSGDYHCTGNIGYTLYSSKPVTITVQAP

T4: FcγRIIa R type extracellular domain with C-terminal His tag (human, UniProt P12318 34-217)
T4 construct: extracellular domain; also called FcgRIIaR; not shown: His tag at the C terminus
T4 sequence (looked up): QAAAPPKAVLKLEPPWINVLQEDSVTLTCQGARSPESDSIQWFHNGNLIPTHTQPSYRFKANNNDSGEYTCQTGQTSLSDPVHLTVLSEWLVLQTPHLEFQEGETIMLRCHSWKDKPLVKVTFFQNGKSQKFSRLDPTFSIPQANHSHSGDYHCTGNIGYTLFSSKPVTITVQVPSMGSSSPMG

T5: FcgRIIb (human, UniProt P31994 43-217)
T5 construct: extracellular domain; also called FcγRIIb
T5 sequence (looked up): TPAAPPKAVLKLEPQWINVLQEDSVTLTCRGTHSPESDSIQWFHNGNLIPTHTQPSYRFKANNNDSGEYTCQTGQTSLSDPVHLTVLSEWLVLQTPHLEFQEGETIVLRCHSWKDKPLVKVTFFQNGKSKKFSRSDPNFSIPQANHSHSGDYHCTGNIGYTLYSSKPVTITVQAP


Experiments:
[1] = biological target: T1, FcγRIIb extracellular domain, His tag; assay: SPR, bound amount per captured antibody
[2] = biological target: T2, FcγRIIa R type extracellular domain, …; assay: SPR, bound amount per captured antibody
[3] = biological target: T3, FcγRIIb extracellular domain with …; assay: SPR; amount bound divided by amount of IL6R-F652/IL6R-L bound, x100
[4] = biological target: T4, FcγRIIa R type extracellular domain …; assay: as above
[5] = biological target: T5, FcgRIIb; assay: SPR, amount bound per captured antibody

Row | Binder | Relative FcgRIIb-binding Activity [1] | Relative FcgRIIaR-binding Activity [2] | Relative FcgRIIb-binding Activity [3] | Relative FcgRIIaR-binding Activity [4] | Relative FcgRIIb-binding Activity [5]
1 | IL6R-F652/IL6R-L (antibody, human IgG1, kappa, IL6R-F648 (P238D) with M252Y and N434Y) heavy: QVQLQESGPGLVKPSETLSLTCAVSGHSISHDHAWSWVRQPPGEGLEWIGFISYSGITNYNPSLQGRVTISRDNSKNTLYLQMNSLRAEDTAVYYCARSLARTTAMDYWGEGTLVTVSSASTKGPSVFPLAPSSKSTSGGTAALGCLVKDYFPEPVTVSWNSGALTSGVHTFPAVLQSSGLYSLSSVVTVPSSSLGTQTYICNVNHKPSNTKVDKKVEPKSCDKTHTCPPCPAPELLGGDSVFLFPPKPKDTLYISRTPEVTCVVVDVSHEDPEVKFNWYVDGVEVHNAKTKPREEQYNSTYRVVSVLTVLHQDWLNGKEYKCKVSNKALPAPIEKTISKAKGQPREPQVYTLPPSRDELTKNQVSLTCLVKGFYPSDIAVEWESNGQPENNYKTTPPVLDSDGSFFLYSKLTVDKSRWQQGNVFSCSVMHEALHYHYTQKSLSLSP light: not shown | 100 % of IL6R-F652/IL6R-L | 100 % of IL6R-F652/IL6R-L | – | – | –
2 | IL6R-PD085/IL6R-L (antibody, human IgG1, kappa, human IgG1) heavy: QVQLQESGPGLVKPSETLSLTCAVSGHSISHDHAWSWVRQPPGEGLEWIGFISYSGITNYNPSLQGRVTISRDNSKNTLYLQMNSLRAEDTAVYYCARSLARTTAMDYWGEGTLVTVSSASTKGPSVFPLAPSSKSTSGGTAALGCLVKDYFPEPVTVSWNSGALTSGVHTFPAVLQSSGLYSLSSVVTVPSSSLGTQTYICNVNHKPSNTKVDKKVEPKSCDKTHTCPPCPAPELLGKDSVFLFPPKPKDTLYISRTPEVTCVVVDVSHEDPEVKFNWYVDGVEVHNAKTKPREEQYNSTYRVVSVLTVLHQDWLNGKEYKCKVSNKALPAPIEKTISKAKGQPREPQVYTLPPSRDELTKNQVSLTCLVKGFYPSDIAVEWESNGQPENNYKTTPPVLDSDGSFFLYSKLTVDKSRWQQGNVFSCSVMHEALHYHYTQKSLSLSP light: not shown | – | – | 11.8 | 0.5 | –
3 | IL6R-PD024/IL6R-L (antibody, human IgG1, kappa) heavy: QVQLQESGPGLVKPSETLSLTCAVSGHSISHDHAWSWVRQPPGEGLEWIGFISYSGITNYNPSLQGRVTISRDNSKNTLYLQMNSLRAEDTAVYYCARSLARTTAMDYWGEGTLVTVSSASTKGPSVFPLAPSSKSTSGGTAALGCLVKDYFPEPVTVSWNSGALTSGVHTFPAVLQSSGLYSLSSVVTVPSSSLGTQTYICNVNHKPSNTKVDKKVEPKSCDKTHTCPPCPAPELLGGDSVFLFPPKPKDTLYISRTPEVTCVVVDVSHEDPEVKFNWYVDGVEVHNAKTKPREEQYNSTYRVVSVLTVLHQDWLNGKEYKCKVSNKALPYPIEKTISKAKGQPREPQVYTLPPSRDELTKNQVSLTCLVKGFYPSDIAVEWESNGQPENNYKTTPPVLDSDGSFFLYSKLTVDKSRWQQGNVFSCSVMHEALHYHYTQKSLSLSP light: not shown | 74.4 % of IL6R-F652/IL6R-L | 60 % of IL6R-F652/IL6R-L | – | – | –
4 | IL6R-PD012/IL6R-L (antibody, human IgG1, kappa) heavy: QVQLQESGPGLVKPSETLSLTCAVSGHSISHDHAWSWVRQPPGEGLEWIGFISYSGITNYNPSLQGRVTISRDNSKNTLYLQMNSLRAEDTAVYYCARSLARTTAMDYWGEGTLVTVSSASTKGPSVFPLAPSSKSTSGGTAALGCLVKDYFPEPVTVSWNSGALTSGVHTFPAVLQSSGLYSLSSVVTVPSSSLGTQTYICNVNHKPSNTKVDKKVEPKSCDKTHTCPPCPAPELLGGDSVFLFPPKPKDTLYISRTPEVTCVVVDVSHEDPEVKFNWYVDGVEVHNAKTKPREEQYNSTYRVVSVLTVLHQDWLNGKEYKCKVNNKALPAPIEKTISKAKGQPREPQVYTLPPSRDELTKNQVSLTCLVKGFYPSDIAVEWESNGQPENNYKTTPPVLDSDGSFFLYSKLTVDKSRWQQGNVFSCSVMHEALHYHYTQKSLSLSP light: not shown | 102 % of IL6R-F652/IL6R-L | 92.5 % of IL6R-F652/IL6R-L | – | – | –
5 | IL6R-PD090/IL6R-L (antibody, human IgG1, kappa, human IgG1) heavy: QVQLQESGPGLVKPSETLSLTCAVSGHSISHDHAWSWVRQPPGEGLEWIGFISYSGITNYNPSLQGRVTISRDNSKNTLYLQMNSLRAEDTAVYYCARSLARTTAMDYWGEGTLVTVSSASTKGPSVFPLAPSSKSTSGGTAALGCLVKDYFPEPVTVSWNSGALTSGVHTFPAVLQSSGLYSLSSVVTVPSSSLGTQTYICNVNHKPSNTKVDKKVEPKSCDKTHTCPPCPAPELLGRDSVFLFPPKPKDTLYISRTPEVTCVVVDVSHEDPEVKFNWYVDGVEVHNAKTKPREEQYNSTYRVVSVLTVLHQDWLNGKEYKCKVSNKALPAPIEKTISKAKGQPREPQVYTLPPSRDELTKNQVSLTCLVKGFYPSDIAVEWESNGQPENNYKTTPPVLDSDGSFFLYSKLTVDKSRWQQGNVFSCSVMHEALHYHYTQKSLSLSP light: not shown | – | – | 23.7 | 7.9 | –
6 | IL6R-PD004/IL6R-L (antibody, human IgG1, kappa) heavy: QVQLQESGPGLVKPSETLSLTCAVSGHSISHDHAWSWVRQPPGEGLEWIGFISYSGITNYNPSLQGRVTISRDNSKNTLYLQMNSLRAEDTAVYYCARSLARTTAMDYWGEGTLVTVSSASTKGPSVFPLAPSSKSTSGGTAALGCLVKDYFPEPVTVSWNSGALTSGVHTFPAVLQSSGLYSLSSVVTVPSSSLGTQTYICNVNHKPSNTKVDKKVEPKSCDKTHTCPPCPAPELLGGDSVFLFPPKPKDTLYISRTPEVTCVVVDVSPEDPEVKFNWYVDGVEVHNAKTKPREEQYNSTYRVVSVLTVLHQDWLNGKEYKCKVSNKALPAPIEKTISKAKGQPREPQVYTLPPSRDELTKNQVSLTCLVKGFYPSDIAVEWESNGQPENNYKTTPPVLDSDGSFFLYSKLTVDKSRWQQGNVFSCSVMHEALHYHYTQKSLSLSP light: not shown | 80.5 % of IL6R-F652/IL6R-L | 77 % of IL6R-F652/IL6R-L | – | – | –
7 | IL6R-PD047/IL6R-L (antibody, human IgG1, kappa) heavy: QVQLQESGPGLVKPSETLSLTCAVSGHSISHDHAWSWVRQPPGEGLEWIGFISYSGITNYNPSLQGRVTISRDNSKNTLYLQMNSLRAEDTAVYYCARSLARTTAMDYWGEGTLVTVSSASTKGPSVFPLAPSSKSTSGGTAALGCLVKDYFPEPVTVSWNSGALTSGVHTFPAVLQSSGLYSLSSVVTVPSSSLGTQTYICNVNHKPSNTKVDKKVEPKSCDKTHTCPPCPAPELFGGDSVFLFPPKPKDTLYISRTPEVTCVVVDVSHEDPEVKFNWYVDGVEVHNAKTKPREEQYNSTYRVVSVLTVLHQDWLNGKEYKCKVSNKALPAPIEKTISKAKGQPREPQVYTLPPSRDELTKNQVSLTCLVKGFYPSDIAVEWESNGQPENNYKTTPPVLDSDGSFFLYSKLTVDKSRWQQGNVFSCSVMHEALHYHYTQKSLSLSP light: not shown | 95.4 % of IL6R-F652/IL6R-L | 89.9 % of IL6R-F652/IL6R-L | – | – | –
8 | IL6R-PD013/IL6R-L (antibody, human IgG1, kappa) heavy: QVQLQESGPGLVKPSETLSLTCAVSGHSISHDHAWSWVRQPPGEGLEWIGFISYSGITNYNPSLQGRVTISRDNSKNTLYLQMNSLRAEDTAVYYCARSLARTTAMDYWGEGTLVTVSSASTKGPSVFPLAPSSKSTSGGTAALGCLVKDYFPEPVTVSWNSGALTSGVHTFPAVLQSSGLYSLSSVVTVPSSSLGTQTYICNVNHKPSNTKVDKKVEPKSCDKTHTCPPCPAPELLGGDSVFLFPPKPKDTLYISRTPEVTCVVVDVSHEDPEVKFNWYVDGVEVHNAKTKPREEQYNSTYRVVSVLTVLHQDWLNGKEYKCKVHNKALPAPIEKTISKAKGQPREPQVYTLPPSRDELTKNQVSLTCLVKGFYPSDIAVEWESNGQPENNYKTTPPVLDSDGSFFLYSKLTVDKSRWQQGNVFSCSVMHEALHYHYTQKSLSLSP light: not shown | 91.9 % of IL6R-F652/IL6R-L | 90.8 % of IL6R-F652/IL6R-L | – | – | –
9 | IL6R-BP365/IL6R-L (antibody, human IgG1, kappa, name in EU numbering) heavy: QVQLQESGPGLVKPSETLSLTCAVSGHSISHDHAWSWVRQPPGEGLEWIGFISYSGITNYNPSLQGRVTISRDNSKNTLYLQMNSLRAEDTAVYYCARSLARTTAMDYWGEGTLVTVSSASTKGPSVFPLAPSSKSTSGGTAALGCLVKDYFPEPVTVSWNSGALTSGVHTFPAVLQSSGLYSLSSVVTVPSSSLGTQTYICNVNHKPSNTKVDKKVEPKSCDKTHTCPPCPAPDLLGDDSVFLFPPKPKDTLMISRTPEVTCVVVDVYEEDGEVKFNWYVDGVEVHNAKTKPREEQYNSTYRVVSVLTVLHQDWLNGKEYKCKVSNKALPAPIEKTISKAKGQPREPQVYTLPPSRDELTKNQVSLTCLVKGFYPSDIAVEWESNGQPENNYKTTPPVLDSDGSFFLYSKLTVDKSRWQQGNVFSCSVMHEALHNHYTQESLSLSP light: not shown | – | – | – | – | 16.7 IL6R-BP267/IL6R-L=100
10 | IL6R-PD023/IL6R-L (antibody, human IgG1, kappa) heavy: QVQLQESGPGLVKPSETLSLTCAVSGHSISHDHAWSWVRQPPGEGLEWIGFISYSGITNYNPSLQGRVTISRDNSKNTLYLQMNSLRAEDTAVYYCARSLARTTAMDYWGEGTLVTVSSASTKGPSVFPLAPSSKSTSGGTAALGCLVKDYFPEPVTVSWNSGALTSGVHTFPAVLQSSGLYSLSSVVTVPSSSLGTQTYICNVNHKPSNTKVDKKVEPKSCDKTHTCPPCPAPELLGGDSVFLFPPKPKDTLYISRTPEVTCVVVDVSHEDPEVKFNWYVDGVEVHNAKTKPREEQYNSTYRVVSVLTVLHQDWLNGKEYKCKVSNKALPHPIEKTISKAKGQPREPQVYTLPPSRDELTKNQVSLTCLVKGFYPSDIAVEWESNGQPENNYKTTPPVLDSDGSFFLYSKLTVDKSRWQQGNVFSCSVMHEALHYHYTQKSLSLSP light: not shown | 102 % of IL6R-F652/IL6R-L | 73.9 % of IL6R-F652/IL6R-L | – | – | –
